Reference: article PMC4462945 (Molecular Biology of the Cell, 2015)
Values belong to the molecule of their own block, whether it stands above or below them.

Assays:
Assay in all cases: pull-down
GST-FliI LRR (mouse) = target: T1, GST-FliI LRR (mouse)
T1 sequence (Q9JJ28 whole entry, looked up): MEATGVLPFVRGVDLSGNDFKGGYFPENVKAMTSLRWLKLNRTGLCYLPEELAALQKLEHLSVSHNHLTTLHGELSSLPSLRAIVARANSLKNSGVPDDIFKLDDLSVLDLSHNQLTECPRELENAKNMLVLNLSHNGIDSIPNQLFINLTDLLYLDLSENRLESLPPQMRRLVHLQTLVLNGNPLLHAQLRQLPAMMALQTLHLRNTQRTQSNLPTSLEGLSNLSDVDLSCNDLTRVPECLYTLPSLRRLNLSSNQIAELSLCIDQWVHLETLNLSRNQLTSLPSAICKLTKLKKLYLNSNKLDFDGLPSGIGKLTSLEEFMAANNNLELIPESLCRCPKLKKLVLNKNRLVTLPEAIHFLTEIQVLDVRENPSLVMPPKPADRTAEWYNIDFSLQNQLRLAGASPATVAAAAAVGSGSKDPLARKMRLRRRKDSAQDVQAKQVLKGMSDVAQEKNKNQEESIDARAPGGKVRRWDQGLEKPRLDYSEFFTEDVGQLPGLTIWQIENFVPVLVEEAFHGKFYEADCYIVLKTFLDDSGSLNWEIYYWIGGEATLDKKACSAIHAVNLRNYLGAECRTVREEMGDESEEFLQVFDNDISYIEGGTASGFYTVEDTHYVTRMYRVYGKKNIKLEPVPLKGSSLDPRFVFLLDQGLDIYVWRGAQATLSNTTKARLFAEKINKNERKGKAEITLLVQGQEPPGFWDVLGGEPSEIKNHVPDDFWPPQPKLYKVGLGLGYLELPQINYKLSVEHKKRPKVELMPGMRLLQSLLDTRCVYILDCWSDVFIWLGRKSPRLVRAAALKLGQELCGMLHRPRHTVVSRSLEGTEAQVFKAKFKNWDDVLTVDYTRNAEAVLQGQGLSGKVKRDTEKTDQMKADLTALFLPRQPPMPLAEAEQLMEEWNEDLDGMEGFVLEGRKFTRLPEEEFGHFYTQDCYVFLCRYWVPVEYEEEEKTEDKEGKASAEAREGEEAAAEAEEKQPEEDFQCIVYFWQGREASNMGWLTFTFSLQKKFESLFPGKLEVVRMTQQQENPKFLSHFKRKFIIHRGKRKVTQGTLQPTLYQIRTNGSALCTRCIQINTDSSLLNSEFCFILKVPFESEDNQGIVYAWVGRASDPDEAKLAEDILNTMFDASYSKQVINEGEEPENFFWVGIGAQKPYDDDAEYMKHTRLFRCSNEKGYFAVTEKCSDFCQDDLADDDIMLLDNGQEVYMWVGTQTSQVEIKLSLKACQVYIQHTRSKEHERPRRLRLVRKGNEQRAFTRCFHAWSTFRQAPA

GST-FliI GLD 1–6 = target: T2, GST-FliI GLD 1–6 (mouse, UniProt Q9JJ28 398-1271)
T2 sequence (looked up): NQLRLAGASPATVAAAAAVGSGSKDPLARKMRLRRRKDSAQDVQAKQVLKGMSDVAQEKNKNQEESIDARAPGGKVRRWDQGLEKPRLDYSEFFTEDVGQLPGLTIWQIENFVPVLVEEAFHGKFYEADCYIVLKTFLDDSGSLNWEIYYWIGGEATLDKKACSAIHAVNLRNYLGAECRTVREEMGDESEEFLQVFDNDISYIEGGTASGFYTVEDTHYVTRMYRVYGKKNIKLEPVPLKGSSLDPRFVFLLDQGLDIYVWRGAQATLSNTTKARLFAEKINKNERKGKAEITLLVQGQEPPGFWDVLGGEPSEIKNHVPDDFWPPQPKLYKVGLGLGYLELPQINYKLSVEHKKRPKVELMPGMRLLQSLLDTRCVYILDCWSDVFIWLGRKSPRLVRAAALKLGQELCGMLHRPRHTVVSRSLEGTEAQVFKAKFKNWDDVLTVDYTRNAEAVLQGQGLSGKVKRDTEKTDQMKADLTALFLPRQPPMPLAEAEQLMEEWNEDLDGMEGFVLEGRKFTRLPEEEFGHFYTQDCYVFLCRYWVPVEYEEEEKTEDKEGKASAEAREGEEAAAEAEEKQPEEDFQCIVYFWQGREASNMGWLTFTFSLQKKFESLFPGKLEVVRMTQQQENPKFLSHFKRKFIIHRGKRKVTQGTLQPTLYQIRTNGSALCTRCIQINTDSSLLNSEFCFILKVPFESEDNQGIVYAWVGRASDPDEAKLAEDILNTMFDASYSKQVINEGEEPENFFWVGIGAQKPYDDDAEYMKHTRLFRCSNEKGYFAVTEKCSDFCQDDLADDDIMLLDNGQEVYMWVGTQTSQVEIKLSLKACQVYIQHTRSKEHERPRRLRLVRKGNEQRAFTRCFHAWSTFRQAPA

GST-FliI GLD 2–6 = target: T3, GST-FliI GLD 2–6 (mouse, UniProt Q9JJ28 619-1271)
T3 sequence (looked up): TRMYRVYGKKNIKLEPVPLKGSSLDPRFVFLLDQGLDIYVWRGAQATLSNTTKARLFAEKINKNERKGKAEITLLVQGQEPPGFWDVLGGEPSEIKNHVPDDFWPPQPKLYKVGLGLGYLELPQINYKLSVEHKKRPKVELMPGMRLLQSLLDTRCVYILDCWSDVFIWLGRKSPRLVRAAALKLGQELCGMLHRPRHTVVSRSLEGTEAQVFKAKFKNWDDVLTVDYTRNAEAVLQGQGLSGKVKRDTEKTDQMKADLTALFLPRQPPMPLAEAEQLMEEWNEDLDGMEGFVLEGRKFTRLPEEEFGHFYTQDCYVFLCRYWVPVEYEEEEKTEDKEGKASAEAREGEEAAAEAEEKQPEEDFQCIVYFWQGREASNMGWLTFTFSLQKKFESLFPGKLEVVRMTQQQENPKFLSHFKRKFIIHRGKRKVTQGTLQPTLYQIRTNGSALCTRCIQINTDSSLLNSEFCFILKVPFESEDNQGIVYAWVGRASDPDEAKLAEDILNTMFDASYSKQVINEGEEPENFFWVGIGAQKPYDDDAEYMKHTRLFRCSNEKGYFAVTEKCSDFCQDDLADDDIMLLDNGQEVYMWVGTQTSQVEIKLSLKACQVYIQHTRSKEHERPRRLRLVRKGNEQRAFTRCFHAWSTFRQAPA

- Kd (GST-FliI LRR (mouse)): 5070 nM
Molecule: NMMIIA rods (residues 1338–1960) (from UniProt P35579 1338-1960) (domain or fragment)

- Kd (GST-FliI GLD 1–6): 146 nM
- Kd (GST-FliI GLD 2–6): 858 nM
B1: NMMIIA rods (residues 1338–1960) (domain or fragment, UniProt P35579 1338-1960, looked up)
chain: KNSFREQLEEEEEAKHNLEKQIATLHAQVADMKKKMEDSVGCLETAEEVKRKLQKDLEGLSQRHEEKVAAYDKLEKTKTRLQQELDDLLVDLDHQRQSACNLEKKQKKFDQLLAEEKTISAKYAEERDRAEAEAREKETKALSLARALEEAMEQKAELERLNKQFRTEMEDLMSSKDDVGKSVHELEKSKRALEQQVEEMKTQLEELEDELQATEDAKLRLEVNLQAMKAQFERDLQGRDEQSEEKKKQLVRQVREMEAELEDERKQRSMAVAARKKLEMDLKDLEAHIDSANKNRDEAIKQLRKLQAQMKDCMRELDDTRASREEILAQAKENEKKLKSMEAEMIQLQEELAAAERAKRQAQQERDELADEIANSSGKGALALEEKRRLEARIAQLEEELEEEQGNTELINDRLKKANLQIDQINTDLNLERSHAQKNENARQQLERQNKELKVKLQEMEGTVKSKYKASITALEAKIAQLEEQLDNETKERQAACKQVRRTEKKLKDVLLQVDDERRNAEQYKDQADKASTRLKQLKRQLEEAEEEAQRANASRRKLQRELEDATETADAMNREVSSLKNKLRRGDLPFVVPRRMARKGAGDGSDEEVDGKADGAEAKPAE
